Reference: patent US20040014149A1 (RIGEL PHARMACEUTICALS, published 2004)
Ends that are not written are not given here.

T1: human thioredoxin-like 32 kDa protein (hTXNL) (human, UniProt O43396 1-289, limits assumed)
T1 sequence: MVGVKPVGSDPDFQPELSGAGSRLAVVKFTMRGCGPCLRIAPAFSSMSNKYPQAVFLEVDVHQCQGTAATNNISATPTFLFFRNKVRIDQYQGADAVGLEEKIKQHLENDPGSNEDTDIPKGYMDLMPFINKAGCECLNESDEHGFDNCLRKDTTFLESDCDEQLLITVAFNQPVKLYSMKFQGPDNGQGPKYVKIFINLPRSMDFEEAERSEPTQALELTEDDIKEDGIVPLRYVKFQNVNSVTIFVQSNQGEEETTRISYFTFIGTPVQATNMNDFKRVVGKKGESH

B1: peptide DR15wt (peptide, not shown: large carriers)
peptide: PERCYMRMPPQSLADAQIYS
modifications: also: expressed as BFP-linker-peptide fusion, construct not described
B2: peptide DR15YM (peptide, not shown: large carriers)
peptide: PERCAARMPPQSLADAQIYS
B3: peptide DR15QI (peptide, not shown: large carriers)
peptide: PERCYMRMPPQSLADAAAYS
B4: peptide DR15PE (peptide, not shown: large carriers)
peptide: AARCYMRMPPQSLADAQIYS

What was measured:
[1] = target: T1, human thioredoxin-like 32 kDa protein …; experiment: cell-based or functional assay
[2] = target: T1, human thioredoxin-like 32 kDa protein …; experiment: cell-based or functional assay; remark: listed apart in the source

Binder | endogenous epsilon inhibition ratio (TAQMAN quantitative PCR) [1] | reporter ratio (original library clone, +IL-4/+Dox to +IL-4/-Dox GFP) [1] | Reporter Ratio (A5T4 germline epsilon promoter GFP reporter line) [2]
B1 | 1.56 | 1.43 | 1.69
B2 | – | – | 1.22
B3 | – | – | 1.35
B4 | – | – | 2.22
